Columns and labels:
Assay in all cases: cell-based or functional assay
[1] = target: IRS-1 phosphorylation domain (PTB peptide), 13 amino acid peptide including Y941 of insulin receptor substrate 1
[2] = target: non-phosphorylable Akt kinase motif … (alanine substitution) of sensor AS1A
[3] = target: Akt kinase motif (AKM) peptide … of sensor AS1T

“SH2 domain of PI3 Kinase (substrate recognition domain) (from UniProt P27986 330-433)” gave a bioluminescence signal induction, split firefly IRS-1 sensor with (EAAAR)2 linker in CHO-IR cells implanted in nude mice, after insulin (fold induction) [1] of 5 and a bioluminescence signal induction, split firefly IRS-1 sensor with (EAAAR)2 linker in CHO-IR cells implanted in nude mice, no insulin (fold induction) [1] of 1.3.
In the case of “yeast phosphothreonine FHA2 binding domain (from UniProt P22216 601-664)”, the complemented FL activity of 293T/AS1A xenografts in nude mice 6 hours after 30 mg/kg perifosine, relative to carrier control treated mice [2] is reported as 20 % decrease, the complemented FL activity of untreated 293T/AS1A cells relative to untreated 293T/AS1T cells [2] is reported as 10 fold and the FL activity of AS1T in 293T cells treated with PDGF for 30 minutes, relative to carrier control [3] is reported as 60 % decrease. It also gave a complemented FL activity of 293T/AS1T xenografts in nude mice 6 hours after 30 mg/kg perifosine, relative to carrier control treated mice [3] of 60 % increase, a complemented FL activity of AS1T in BT474 cells treated with the PI-3K inhibitor LY294002 for 24 hours, relative to carrier control [3] of 1.3 fold and a maximum induction of complemented FL activity of AS1T in response to LY294002 [3] of 4 fold.

— US20070275428A1
